According to patent KR20200098338A (dated 2020):
Numbering of substitutions follows the chain as printed. Each block holds one binder with its values, some of them ahead of it.

Columns and labels:
[1] = target: T1, 인간 BAG2 단백질 (human BAG2 protein) (human, UniProt O95816 2-211); assay: immunoblot selection of hybridoma clones
T1 construct: also called BAG2 폴리펩티드

[2] = target: T2, GST-Bag Full (GST-융합 전장 BAG2 폴리펩티드) (human, UniProt O95816 1-211); assay: immunoblot of lysate of HEK293T cells transfected with GST-Bag Full vector, signal at about 50 kDa
T2 construct: Expressed in HEK293T cells, detected at about 50 kDa in lysate by immunoblot; also called GST-Bag Full 벡터 발현 산물; not shown: GST tag, about 26 kDa, from pcDNA3.1+/GST vector (NovoPro Bioscience)
T2 sequence (O95816 whole entry): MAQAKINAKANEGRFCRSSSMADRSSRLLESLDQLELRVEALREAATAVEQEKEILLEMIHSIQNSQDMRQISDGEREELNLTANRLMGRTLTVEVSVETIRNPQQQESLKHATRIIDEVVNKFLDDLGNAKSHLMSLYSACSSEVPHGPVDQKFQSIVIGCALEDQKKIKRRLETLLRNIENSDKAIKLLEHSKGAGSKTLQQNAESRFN

[3] = target: T1, 인간 BAG2 단백질 (human BAG2 protein); assay: immunoblot of MDA-MB-231 cell lysate, antibody from hybridoma culture at 1/2000

T1 sequence (O95816 2-211 limits assumed): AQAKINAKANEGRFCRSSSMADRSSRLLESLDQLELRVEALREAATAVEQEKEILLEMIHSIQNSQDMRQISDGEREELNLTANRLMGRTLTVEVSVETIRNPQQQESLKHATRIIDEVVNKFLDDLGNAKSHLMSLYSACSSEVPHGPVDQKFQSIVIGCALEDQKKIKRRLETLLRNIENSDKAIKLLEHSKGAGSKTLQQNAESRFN

binding result [1]: binds | binding result [2]: binds
B1: 2A11 항체 (항-BAG2 단일클론성 항체) (antibody, V domains shown)
VH: QVQLQQPGAELVRPGASVTLSCKASGYTFTDYEMHWVKQTPVHGLEWIGIIDPETGGTAYNQKFKGKATLTADKSSSTAYMELRSLTSEDSAVYYCTRGKFYYSGRDYAMDYWGQGTSVTVSS
VL: DVLMTQTPLSLPVSLGDQASISCRSSQSIVHSNGNTYLEWYLQKPGQSPKLLIYKVSNRFSGVPDRFSGSGSGTDFTLKISRVEAEDLGVYFCFQGSQVPPTFGGGTKLEIK
notes: Mouse hybridoma monoclonal antibody

binding result [2]: binds | binding result [3]: binds
B2: 8C4 항체 (항-BAG2 단일클론성 항체) (antibody, V domains shown)
VH: B1 VH with G56A
VL: B1 VL with I53F
notes: as for B1

binding result [2]: binds | binding result [3]: binds
B3: 4C2 항체 (항-BAG2 단일클론성 항체) (antibody, V domains shown)
VH: B1 VH with G57A
VL: B1 VL with I53F
notes: as for B1

binding result [2]: binds | binding result [3]: binds
B4: 3G8 항체 (항-BAG2 단일클론성 항체) (antibody, V domains shown)
VH: QIQLVQSGPELKKPGETVKISCKASGYSFTKYGMNWVKQAPGKDIKWMGWINTNTGEATYGEEVKGRFAFSLETSASTAYLQINNLKNEDTATYFCARLGLRYLDYWGQGTTLTVSS
VL: DIVMTQSPASLVVSLGQRATISCRASKSVSTSDYSYMHWYQQKPGQPPKVLIYLASNLESGVPARFSGSGSGTDFTLNIHPVEEEDAATYYCQHNRELPPTFGAGTKLELK
notes: as for B1

binding result [1]: binds | binding result [2]: binds
B5: 3F12 항체 (항-BAG2 단일클론성 항체) (antibody, V domains shown)
VH: QVQLQESGPDLVKPSQSLSLTCTVTGYSITSGYSWHWIRQFPGNKLEWMGYIYYRGSTNYNPSLKSRISITRDTSKNQFFLLLKSVTTEDTATYYCAREAYWGQGTLVTVSA
VL: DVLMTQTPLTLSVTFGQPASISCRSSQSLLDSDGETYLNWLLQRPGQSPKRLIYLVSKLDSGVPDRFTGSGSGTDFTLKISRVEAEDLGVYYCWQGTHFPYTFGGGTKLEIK
notes: as for B1
